For two proteins, expression_or_secretion, oligomerisation and localisation_or_trafficking results are on record in publication PMC5931557.

Data set [1] is described as follows: cell surface staining, flow cytometry; reducing immunoblot. Particulars: glycan lost; control: WT mTRAIL-R.
The nature of data set [2]: non-reducing SDS-PAGE immunoblot, transient overexpression. Particulars: glycan lost; control: WT mTRAIL-R.
A short description of data set [3]: streptavidin pulldown, non-reducing immunoblot. Particulars: glycan lost; control: untreated MEFs.
Data set [4] in a line: cell surface flow cytometry, 7 h TU. Particulars: glycan lost; control: untreated MEFs.

B1: mTRAIL-R: N99/N122/N150Q (protein)
parent chain: MEPPGPSTPTASAAARADHYTPGLRPLPKRRLLYSFALLLAVLQAVFVPVTANPAHNRPAGLQRPEESPSRGPCLAGQYLSEGNCKPCREGIDYTSHSNHSLDSCILCTVCKEDKVVETRCNITTNTVCRCKPGTFEDKDSPEICQSCSNCTDGEEELTSCTPRENRKCVSKTAWASWHKLGLWIGLLVPVVLLIGALLVWKTGAWRQWLLCIKRGCERDPESANSVHSSLLDRQTSSTTNDSNHNTEPGKTQKTGKKLLVPVNGNDSADDLKFIFEYCSDIVPFDSWNRLMRQLGLTDNQIQMVKAETLVTREALYQMLLKWRHQTGRSASINHLLDALEAVEERDAMEKIEDYAVKSGRFTYQNAAAQPETGPGGSQCV
For B1, the expression_or_secretion result in data set [1] is “no change, the mean intensity of the signal was even weaker for the N99/N122/N150Q mTRAIL-R-expressing cells”. The oligomerisation result in data set [2] is given as “changes”.

B2: mTRAIL-R: tunicamycin (protein)
parent chain: B1 parent chain
For B2, the oligomerisation entry in data set [3] is recorded as “changes”. For the same protein, in data set [4], the localisation_or_trafficking result is “no change”.
